{"source": "patent US20240067690A1", "molecules": {"B1": {"name": "IL2(3m)-Fc (REGN8190) (Fc fusion)", "chain": "APTSSSTKKTQLQLEHLLLDLQMILNGINNYKNPKLTRMLTAKFAMPKKATELKHLQCLEEELKPLEEVLNGAQSKNFHLRPRDLISNINVIVLELKGSETTFMCEYADETATIVEFLNRWITFCQSIISTLTGGGGSESKYGPPCPPCPAPPVAGPSVFLFPPKPKDTLMISRTPEVTCVVVDVSQEDPEVQFNWYVDGVEVHNAKTKPREEQFNSTYRVVSVLTVLHQDWLNGKEYKCKVSNKGLPSSIEKTISKAKGQPREPQVYTLPPSQEEMTKNQVSLTCLVKGFYPSDIAVEWESNGQPENNYKTTPPVLDSDGSFFLYSRLTVDKSRWQEGNVFSCSVMHEALHNHYTQKSLSLSLGK"}}, "assay_in_all_cases": "cell-based or functional assay", "key": {"[1]": {"target": "high affinity (IL2Ra/b/g) IL2 receptor on YT/STAT5-Luc/hIL2Ra reporter cells (human; human (human T/NK cell leukemia YT cell line)) (UniProt P01589)", "sequence (P01589 22-272, chain 1 of 3)": "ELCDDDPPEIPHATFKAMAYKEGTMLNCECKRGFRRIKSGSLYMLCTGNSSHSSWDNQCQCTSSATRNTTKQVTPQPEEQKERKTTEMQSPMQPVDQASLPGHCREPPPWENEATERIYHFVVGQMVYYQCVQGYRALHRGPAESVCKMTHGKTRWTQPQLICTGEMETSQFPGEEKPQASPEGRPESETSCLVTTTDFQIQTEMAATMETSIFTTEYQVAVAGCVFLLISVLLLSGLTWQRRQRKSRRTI", "sequence (P14784 27-551, chain 2 of 3, further chain)": "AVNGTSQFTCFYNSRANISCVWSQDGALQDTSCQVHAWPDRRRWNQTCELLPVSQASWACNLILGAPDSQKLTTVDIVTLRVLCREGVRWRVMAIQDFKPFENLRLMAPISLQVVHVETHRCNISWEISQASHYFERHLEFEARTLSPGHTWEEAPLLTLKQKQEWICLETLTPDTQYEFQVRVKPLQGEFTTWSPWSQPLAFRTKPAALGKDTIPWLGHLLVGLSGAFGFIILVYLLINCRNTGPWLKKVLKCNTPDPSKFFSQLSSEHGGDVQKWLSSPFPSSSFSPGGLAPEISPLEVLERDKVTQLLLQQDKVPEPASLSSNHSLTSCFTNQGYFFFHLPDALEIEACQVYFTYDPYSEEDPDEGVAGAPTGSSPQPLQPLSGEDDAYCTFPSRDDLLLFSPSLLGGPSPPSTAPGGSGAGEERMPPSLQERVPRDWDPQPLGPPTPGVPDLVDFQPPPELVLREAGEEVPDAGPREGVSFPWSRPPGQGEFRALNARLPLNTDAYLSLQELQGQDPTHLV", "sequence (P31785 23-369, chain 3 of 3, further chain)": "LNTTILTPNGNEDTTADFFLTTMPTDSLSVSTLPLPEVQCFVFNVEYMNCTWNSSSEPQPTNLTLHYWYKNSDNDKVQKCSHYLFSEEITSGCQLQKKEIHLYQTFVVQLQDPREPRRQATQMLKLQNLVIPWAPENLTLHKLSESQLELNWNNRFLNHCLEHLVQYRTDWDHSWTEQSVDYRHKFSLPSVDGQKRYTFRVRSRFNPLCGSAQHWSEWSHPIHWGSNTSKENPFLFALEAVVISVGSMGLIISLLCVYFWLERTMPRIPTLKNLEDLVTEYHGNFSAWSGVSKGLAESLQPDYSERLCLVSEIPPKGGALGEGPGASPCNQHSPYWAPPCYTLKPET"}, "[2]": {"target": "low affinity (IL2Rb/g) IL2 receptor on YT/STAT5-Luc/IL2Ra KO reporter cells (human (human T/NK cell leukemia YT cell line)) (UniProt P14784)", "sequence (P14784 27-551, chain 1 of 2)": "as the sequence (P14784 27-551, chain 2 of 3, further chain) above", "sequence (P31785 23-369, chain 2 of 2, further chain)": "as the sequence (P31785 23-369, chain 3 of 3, further chain) above"}, "[3]": {"target": "high affinity (IL2Ra/b/g) IL2 receptor on YT/STAT5-Luc/hIL2Ra reporter cells (human; human (human T/NK cell leukemia YT cell line)) (UniProt P01589)", "remark": "listed apart in the source"}, "[4]": {"target": "low affinity (IL2Rb/g) IL2 receptor on YT/STAT5-Luc/IL2Ra KO reporter cells (human (human T/NK cell leukemia YT cell line)) (UniProt P14784)", "remark": "listed apart in the source"}}, "note": "Read-outs that look alike come from different tables or passages of the source."}
{"molecule": "IL2(E68C)-mmh (REGN7184), dimeric human IL-2 (E68C) with a C-terminal myc-myc-hexahistidine (mmh) tag (ligand)", "values": [{"measurement": "EC50, STAT5-luciferase reporter assay, YT/Stat5-Luc/hIL2Ra cells (M (unit not given))", "setting": "[1]", "value": "5.63e-10"}, {"measurement": "fold less potency than IL2-mmh (REGN7183), STAT5-luciferase reporter assay, YT/STAT5-Luc/hIL2Ra cells", "setting": "[1]", "value": 34, "unit": "fold"}, {"measurement": "EC50, STAT5-luciferase reporter assay, YT/Stat5-Luc/IL2Ra KO cells", "setting": "[2]", "value": 0.847, "unit": "nM"}]}
{"molecule": "IL2-Fc (REGN8189) (Fc fusion)", "values": [{"measurement": "EC50, STAT5-luciferase reporter assay, YT/Stat5-Luc/IL2Ra KO cells", "setting": "[2]", "value": 0.542, "unit": "nM"}]}
{"molecule": "IL2-Fc (REGN8189) (Fc fusion; in M (unit assumed))", "values": [{"measurement": "EC50, STAT5-luciferase reporter assay, YT/Stat5-Luc/hIL2Ra cells (M (unit not given))", "setting": "[1]", "value": "1.69e-11"}]}
{"molecule": "IL2-mmh (REGN7183), monomeric human IL-2 with a C-terminal myc-myc-hexahistidine (mmh) tag (ligand)", "values": [{"measurement": "EC50, STAT5-luciferase reporter assay, YT/Stat5-Luc/IL2Ra KO cells", "setting": "[2]", "value": 0.622, "unit": "nM"}]}
{"molecule": "IL2-mmh (REGN7183), monomeric human IL-2 with a C-terminal myc-myc-hexahistidine (mmh) tag (ligand; in M (unit assumed))", "values": [{"measurement": "EC50, STAT5-luciferase reporter assay, YT/Stat5-Luc/hIL2Ra cells (M (unit not given))", "setting": "[1]", "value": "1.65e-11"}]}
{"molecule": "B1", "values": [{"measurement": "EC50, STAT5-luciferase reporter assay, YT/Stat5-Luc/hIL2Ra cells (M (unit not given))", "setting": "[3]", "value": "5.17e-11"}, {"measurement": "fold less potency than IL2-Fc (REGN8189), STAT5-luciferase reporter assay, YT/STAT5-Luc/hIL2Ra cells", "setting": "[3]", "value": 3, "unit": "fold"}, {"measurement": "EC50, STAT5-luciferase reporter assay, YT/Stat5-Luc/IL2Ra KO cells", "setting": "[4]", "value": 0.628, "unit": "nM"}]}
